This is an account of results in the nanobody polyreactivity screen of Harvey et al. (2022).

The data set is described as follows: yeast display, Sf9 membrane polyspecificity reagent, FACS + sequencing; frameworks hold sequencing errors. Put shortly:
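After 36–48 hours of galactose induction, yeast (Saccharomyces cerevisiae BJ5465) displaying a synthetic nanobody library were stained at 4 °C for 1 hour with 10% biotinylated, detergent-solubilized Sf9 membrane reagent. Streptavidin microbeads enriched the stained cells before FACS sorting into low and high (top ~1%) gates on anti-HA and streptavidin fluorescence. Each clone's polyreactivity label reflects its gate of origin.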
For “QVQIVESGGGLVQAGGSLRLSCAASGSIFPINAMGWYRQAPGKERELVAVITSGGGGTYYADCVKGRYTISRDNAKNTVYLQMNSLKPEDPAGYYCAKRLSRKWQKFGYWGQGTQVTVSS”, the “polyreactivity (PSR sort gate)” value is recorded as “low polyreactivity”.

“QVHLVESGGGLVQAGGSLRLSCAASGSIFWYYGMGWYRQAPGKERELVASITSGGSTNYADSVKGRFSISRDNAKNTVYLQMNRLKPEDSAVYYCNTDDDSSSTGYYSWGQGTQVNVSS”: the “polyreactivity (PSR sort gate)” value was “low polyreactivity”.

As for “QVQLVESGGGLVQAGGSLRLSCAASGSTSYTNAMGWYRPAPGKERELVAGITRSGDSTYYADSVKGRFTISRDNAKNTVYLQMNSLKPEDTAVYYCAADIGDYWWGYYTGYYYWGQGTQVTVSS”, the “polyreactivity (PSR sort gate)” value is “high polyreactivity”.

Take “QVQVVESGGGLVQAGGSLRLSCAASGIIFKQNVMGRYIQAPGKERELVAAISRGGSTNYADSLKGRFTISRDNAKNTVYLQMNSLKPEDTEVYYCAARFVLRREYGYWGQGTQVTVSS”: the “polyreactivity (PSR sort gate)” value was “high polyreactivity”.

As for “QVQLVDSGGGLVQAGGSLRLSCAASGRTIPYYAMGWYRQAPGKERELVAAISSSGGRTYYADSVKGRFTISRDNAKNTVYLQMNSLKPEDTAVYYCNVDAWYPYQGFLVGYYYWGQGTQVTVSS”, the “polyreactivity (PSR sort gate)” value is listed as “low polyreactivity”.

Regarding “QVHLVESGGGLVQAGGSLRLSCAASGSTFKPYTMGWYRQAPGKERELVAAITSRGTSTYYADSVKGRFKISRDNAKNTVYLQMNSLKPEDTEVYYCAARRPGTFSYGYWGQGTQVTVSS”, the “polyreactivity (PSR sort gate)” value was “high polyreactivity”.

“QVQLVESGGGLVQAGGSLRLSCAASGSTFASNAMGWYRQAPGKERELVAAIDWTGASTYYADSVKGRFTISRDNAKNTVYLQMNSLKPEDTAVYYCNADEYWNSRTQGYNYWGQGTQVTVSS”: the “polyreactivity (PSR sort gate)” value was “low polyreactivity”.

Regarding “QVQLVESAGCLVQAGGSLRLSCAASGSIISAYARGWYRQAPGKERQLVAAITRSGGSTYYADSVKGRFTISRDYAKITVYLQMNSLKPEDTAVYYCAARSYVHVFVRMYYWGQGTQVTVSS”, the “polyreactivity (PSR sort gate)” value was “high polyreactivity”.

“QVQLVESGGGLVQAGGSLRLSCAASGLIFPPNAMGWYRQAPGKERELVASITRSGVSTNYADSVKGRFTISRDNAKNTVYLQMNSLKPEDTAVYYCAAVIYSTYTIPNDEMGYWGHGTQVTVSS”: the “polyreactivity (PSR sort gate)” value is recorded as “low polyreactivity”.

Take “QVQLVESGGGLVQAGGSLRLSCAATGSIFYFNAMGWYRKAPGKERELVADISGSGGSTYYADSVKGRFTISRDNAKNTVYLQMNSLKPEDTAVYYCAARLYLHSWWYYAYDYWGQGTQVTVSS”: the “polyreactivity (PSR sort gate)” value is listed as “high polyreactivity”.

As for “QVQLVESGGRLVQAGGSLRLSCAASGRIFNYYDMGWYSQAPGKERELVAAINYSGGSTYYADSVKGRFTISRDNAKNTVSLQMNSLKAEDTAVYYCAADGYYYYCYGTTDQDDYWGLGTQVTVSS”, the “polyreactivity (PSR sort gate)” value is on record as “low polyreactivity”.

For the sequence “QVQLVESGGGLVQAGGTLRLSCAASGSTYEVYAMGWYRQAPGTERELVAVITGNGGSTNYADSVKGRFTISRDNAKNTVYLQMNSLKPEDTAVYYCAADFYTFVRSDYWGQGTQVTVSS”, the “polyreactivity (PSR sort gate)” value was “low polyreactivity”.

For the sequence “QVQLVESGGGLVQAGGSLRLSCAASGSTFRYYAMGWYRPAPGKERELVAAINSSGGSTYYADSVKGRFTISRDNAKNTVYLQMNSLKPEDTAVYYCATVYAYTGWLTNPREYSRYDYWGQGTQVTVSS”, the “polyreactivity (PSR sort gate)” value is “low polyreactivity”.

“QVQLVESGGGLVQAGGSLRLSCAASGIIFSVNAMGWYRQAPGTERELVAAISSSGGDTYYADSVKGRFTISRDNAKNTVYLQMNSLKPEDTAVYYCAASVEQPGLAYDYWGQGTQVTVSS”: the “polyreactivity (PSR sort gate)” value is on record as “low polyreactivity”.

Consider “QVQLVESGGGLVQAGGSLRLSCAASGRIFYYNGMGWYRQAPGKERELVAAISRGGSTYYADSVKGRFTISRDNAKNTVYLQMNSLKPEDTAVYYCAARWKPPYWGRYYYWGQGTQVTVSS”, for which the “polyreactivity (PSR sort gate)” value is “high polyreactivity”.

“QVQLVESGGGLVQAGGSLRLSCAASGFTIGSNVMGWYRQAPGKERELVAAISSRGGSTYYADSVKGRFTISRDNAMNTVYLQMNSLKPEDTAVYDCAADAYYRGGWGDYWGQGTQVTVSS”: the “polyreactivity (PSR sort gate)” value is listed as “high polyreactivity”.

On to “QVQLVESGGGLVQAGGSLRLSCAASGFTFPYYAMAWYRQAPGKEREVVAAISFSGGRTYYADSVMGRFTISRDNAKYTVYLQMNSLKPEDTAVYYCASYDYRNTGGGGYYYWGQGTQVTVSS”, for which the “polyreactivity (PSR sort gate)” value is “high polyreactivity”.

In the case of “QDQLVESGGGLVQAGGSLRLSCAASGRTLGKYAMGWSRQAPGQERELVAAITQRGGITYYADSVQGRFTISRDNAKNTVYLQMNSLKPEDTAVYYCAASLYSYRSPYTFYYWGQGTQVTVSS”, the “polyreactivity (PSR sort gate)” value is recorded as “high polyreactivity”.

For the sequence “QVQLVESGGGLVQAGGSLRLSCAASGFTFTAYAMGWSRQAPGKERELVAAISSGGSTYYADSVKGRFTISRDNAKNTVYLQMNSLKPEDTAVYYCAAVGVYTVKREYWGQGTQVTVSS”, the “polyreactivity (PSR sort gate)” value is reported as “low polyreactivity”.

Turning to “QVQLVESGGGLVQAGGSLRLSCAASGRTFKQYAMGCYRQAPGKERELVAVITRTGGSTYYADSVKGRFTISRDNAKNTVYLLMNSLKPEDTAVYYCARYPPRGYIAWRYYDYDYWGQGTQVTVSS”, the “polyreactivity (PSR sort gate)” value is recorded as “high polyreactivity”.

For the sequence “QVQLVESGGGLVQAGGSLRLSCAASGSIFKDNAMGWYRQAPGKERELVAAITSGASTNYADSVKGRFTISRDNAKNTVYLQMNSLKPEDTAVYYCAAVLAGGVYWVVHYDYWGQGTQVTVSS”, the “polyreactivity (PSR sort gate)” value is recorded as “low polyreactivity”.

On to “QVQHVESGGGLVHAGGSLRLSCAASGRIFGGYAMGWYRQPPGKDREFVATISRSGSSTYYADSVKGRFTISRDNAKNTVYLQMNSLKPEDTAVYYCAAVIRRPNQWYWWTNSDYWGQGTQVTVSS”, for which the “polyreactivity (PSR sort gate)” value is on record as “high polyreactivity”.

For the sequence “QVQLVESGGGLVQAGGSLRLSCAASGSTFGYNTMGWYRQAPGNERELVAAITGTGRTNYADSVKGRFTISRDNAKNTVYLQMNRLNPEDTAVYYCNARQAGTRYKYGYYGRYYWGQGTQVTVSS”, the “polyreactivity (PSR sort gate)” value is reported as “high polyreactivity”.

As for “QVQLVESGGGLVQAGGSLRLSCAASGSTFGFYAMGGYRQAPGKERELVAAITSGDITYADSVKGRFTISRDNAKNTVYLQMNSLKPEDTAVYYCATTSYGYWFGYIPEVDYWGQGTQVSVSS”, the “polyreactivity (PSR sort gate)” value is given as “low polyreactivity”.

For the sequence “QVQLVESGGGLVQAGGSLRLSCAASGSTFFPYAMGWYRPAPGKERELVAAIRWSGGRTYYADSVKGRFTISRDNAKNTVYLQMNSLKPEDTAVYYCAADKYLDYDYWGQGTQVTVSS”, the “polyreactivity (PSR sort gate)” value was “high polyreactivity”.

In the case of “QVQLVESGGGLVQAGGSLRLSCAASGRIFIINALGWYRQAPGKERELVAAINTGGGTNYADSVKGRFTISRDNAKNTVYLQMNSLKPEDTAVYYCAARTYDYRARHKDGYWGQGTQVTVSS”, the “polyreactivity (PSR sort gate)” value is given as “high polyreactivity”.

Take “QVQLVESGGGLVQAGGRLRLSSAASGSTFPYNAMGWYRQAPGKERELVADITSGSSTYYADSGKGRFTISRDNAKNTVYLQMNSLKPEDTAVYYCAATYFVWLNAGGRGYWGQGTQVTVSS”: the “polyreactivity (PSR sort gate)” value is listed as “low polyreactivity”.

For “QVQLVESGGGLVQAGGSLRLSCAASGLIFDIYAMGWYRQAPGKERELVATISKRGGTTSYADSVKGRFTISRDNAKNTVYLQMNSLKPEDTAVYYCAATTLIAYDYWGQGTQVTVSS”, the “polyreactivity (PSR sort gate)” value is “high polyreactivity”.

Take “QVQLVESGGGLVQAGGSLRLSCAASGFTFNYYAMGWYRQAPGKERELVAGITRSGVSTNYADSVKGRFTISRDNAKNTVYLQMNSLKPEDTAGYYSAREEGRRYRGWPYVFAPQHDYWGQGTQVTVSS”: the “polyreactivity (PSR sort gate)” value is on record as “high polyreactivity”.

“QVQLVESGGGLVQAGGSLSLSCAASGLIFYIYAMGWYRQAPGKEMELVAAITESGGSTYYADSVKGRFTISRDNAKNTVYLQMNSLKPEDTAVYYCAKDFHNYPSFGEDYWGQGTQVTVSS”: the “polyreactivity (PSR sort gate)” value was “low polyreactivity”.

Take “QVQLVESGGGLVQAGGSHRLSCAASGITFRWYTMGWYRQAPGKERELVAAITGSGCTTYYADSVKGRFTISRDNAKNNVYLQMYSLKPEDSAVYYCAAEFYGLVYVPPYDYWGQGTQVTVSS”: the “polyreactivity (PSR sort gate)” value is “high polyreactivity”.

Take “QVQLVESGGGLVQAGGSLRLSCAASGRIFVNNAMGWYRQAPGKERELVAAITGRGTRTYYADSVKGRFTISRDNAKNTVYLQMNSLKPEDTADYYCNAVSTAVIGYEYDYWGQGTQVTVSS”: the “polyreactivity (PSR sort gate)” value is “high polyreactivity”.

With “QVQLVESGGGLVQAGCSLRLTCPASGSIIKLYAMGWYRQAPGKEREMVAAITSVGSTYYADSVKGRFTISRDNAKNTVYFQMKSLKPEDTAVYYCAASVYYLYFHAKYDYWGQGTLVTVSS”, the “polyreactivity (PSR sort gate)” value is “low polyreactivity”.

Take “QVHLVESGGGLVQAGGSLRLSCAASGSTFAVYAMGWYRQAPWKESELVAGISSRGGRTYYADSVKGRFTISRDNAKNTVYLQMNSLKPEDTAVYYCNVVYTYWRYYRWREYDYWGQGTQVTVSS”: the “polyreactivity (PSR sort gate)” value is reported as “high polyreactivity”.

On to “QVQLVESGGGLVQAGGSLRLSCAASGSTFDANAMGWYRQAPGKERELVARMSRSTGSTYYADSVKGRFTISRDTAMNSVYLQLNSLKPVDTAVYYCAKVSRASNKYGYWGQGTQVTVSS”, for which the “polyreactivity (PSR sort gate)” value is listed as “high polyreactivity”.

Consider “QVQLVESGGGLVQAGGSLRLSCAAYGSTFTDYDMGWYRQAPGKERELVAAITSGGSTNYADSVKGRFTISRDNAKNTVYLQMNSLKPEDTAVYYCAAADADRKYDYWGQGTQVTVSS”, for which the “polyreactivity (PSR sort gate)” value is recorded as “low polyreactivity”.

For “QVQLVESGGGLVQAGGSLRLSCAASGFILSVYAMGWYRQAPGTETELVAAISKRGGSTNYADSVKGRFTISRDNAKDTVYLQMNSLKPEDTAVYYCAKARAGFLYDHWGQGTQVTVSS”, the “polyreactivity (PSR sort gate)” value is reported as “high polyreactivity”.

As to “QVQLVESGGGLVQAGGSLRLSCAASGSIFVWYDMGWYRQAPGKERELVATISLSGVSTYYADSVKGRFTISRDNAKNPVYLQLNSLKPEDTAVYYCAADFVEQGEDDYWGQGTQVTVSS”, the “polyreactivity (PSR sort gate)” value was “low polyreactivity”.

Regarding “QVQLVESGGGLVQAGGSLRLSCAASGLIFPAYAMGWYRQAPGKERELVAAISYSGGRTYYADSVKGRVTISRDNAKNTVYLQMNSLKPEDTAVYYCNTGYWYVSLGSYDYYGEYDYWGQGTQVTVSS”, the “polyreactivity (PSR sort gate)” value is reported as “high polyreactivity”.

In the case of “QVQLVESGGGLVQAGGSLRLSCAASGRMGWYRQAPGKERELVAGITSSGRTYYADSVKGRFTISRDNAKNTVYLQMNSLKPEDTAVYYCATYGYWGQGTQVTVSS”, the “polyreactivity (PSR sort gate)” value is recorded as “high polyreactivity”.
